Source: EP4242225A1 (Consejo Superior De Investigaciones Científicas, dated 2023)

Assays:
Test in all cases: ELISA, biotin-labeled bispecific hcAb on plate-bound RBD-Fc
[1] = target: T1, RBD-Fc, beta variant (B.1.351) (SARS-CoV-2; human, UniProt P0DTC2 332-534)
T1 construct: range 332-534; also called beta RBD

[2] = target: T2, RBD-Fc, gamma variant (B.1.1.28.1 or P.1) (SARS-CoV-2; human, UniProt P0DTC2 332-534)
T2 construct: range 332-534; also called gamma RBD

[3] = target: T3, RBD-Fc, delta variant (B.1.617.2) (SARS-CoV-2; human, UniProt P0DTC2 332-534)
T3 construct: range 332-534; also called delta RBD

[4] = target: T4, RBD-Fc, kappa variant (B.1.617.1) (SARS-CoV-2; human, UniProt P0DTC2 332-534)
T4 construct: range 332-534; also called kappa RBD

Measured: binding result

B1: bispecific hcAb 1.29-1.26 (bispecific antibody)
heavy: QVQLVESGGGSVQAGGSLRLSCAASGYTINTDAVAWFRQAPGKGDERVAVIYTGSGNTNYADSVKGRFTISQDNAKNTVYLQMNSLKPEDTALYYCASGYYGASGYDFNNWGQGTQVTVSSGGGGSGGGGSGGGGSQVQLVESGGGLVQAGGSLRLSCAATGYTWSSVCMGWFRQAPGKEREGVAGIPSGRNRPYYADSVKGRFTISQDNAKNAVFLLMNSLKPEDTAIYYCAPCSAPHDPEYNYWGQGTQVTVSS
binds: all assays above

B2: bispecific hcAb 1.29-1.10 (bispecific antibody)
heavy: QVQLVESGGGSVQAGGSLRLSCAASGYTINTDAVAWFRQAPGKGDERVAVIYTGSGNTNYADSVKGRFTISQDNAKNTVYLQMNSLKPEDTALYYCASGYYGASGYDFNNWGQGTQVTVSSGGGGSGGGGSGGGGSQVQLVESGGGSVQAGGSLRLSCAASGYTYSTCRKGWYRQAPGKERELVASITADGATYYLDSVKGRLTISQDNAKNTVYLQMNSLKPEDTAVYYCAASVKDFTCTFNSWGQGTQVTVSS
binds: all assays above
